From article PMC9943660
Substitutions are numbered along the chain they refer to.

Columns and labels:
Experiment in all cases: SPR
MutS WT = biological target: T1, MutS WT (Escherichia coli, UniProt P23909 1-853)
T1 sequence: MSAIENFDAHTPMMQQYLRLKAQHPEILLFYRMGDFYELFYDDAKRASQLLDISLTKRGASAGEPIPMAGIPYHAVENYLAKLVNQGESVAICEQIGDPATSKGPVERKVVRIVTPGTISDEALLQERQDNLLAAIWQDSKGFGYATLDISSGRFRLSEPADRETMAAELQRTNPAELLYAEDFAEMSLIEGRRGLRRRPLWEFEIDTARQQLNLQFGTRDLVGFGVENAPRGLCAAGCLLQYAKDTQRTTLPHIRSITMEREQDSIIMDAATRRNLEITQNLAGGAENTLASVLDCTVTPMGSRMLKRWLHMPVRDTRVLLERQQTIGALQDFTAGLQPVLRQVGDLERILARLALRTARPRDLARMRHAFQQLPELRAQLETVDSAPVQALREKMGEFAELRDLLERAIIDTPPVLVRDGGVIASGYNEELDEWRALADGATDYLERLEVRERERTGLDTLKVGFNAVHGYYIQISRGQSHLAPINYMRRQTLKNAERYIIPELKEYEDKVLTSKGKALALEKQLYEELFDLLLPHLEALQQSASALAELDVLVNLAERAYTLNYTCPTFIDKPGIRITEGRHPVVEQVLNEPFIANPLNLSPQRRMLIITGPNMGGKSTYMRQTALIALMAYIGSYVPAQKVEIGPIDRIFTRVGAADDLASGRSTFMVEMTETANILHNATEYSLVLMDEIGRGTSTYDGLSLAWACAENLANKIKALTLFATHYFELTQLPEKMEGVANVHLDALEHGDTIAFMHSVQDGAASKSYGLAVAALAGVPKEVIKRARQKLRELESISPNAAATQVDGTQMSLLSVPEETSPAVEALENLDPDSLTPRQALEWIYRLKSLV

[1] = biological target: MSH2 dMBD2;MSH6 WT (MutSα) (human;human, UniProt P43246;P52701 125-934;1-1360, |)
[2] = biological target: MSH2 del2-7;MSH6 WT (MutSα) (human;human, UniProt P43246;P52701 1-934;1-1360, del2-7|)
[3] = biological target: MSH2 WT (MutSα);MSH6 WT (MutSα) (human;human, UniProt P43246;P52701 1-934;1-1360, |)
MutS D835R = biological target: T2, MutS D835R (Escherichia coli, UniProt P23909 1-853, D835R)
T2 sequence: T1 sequence with D835R

B1: 21 bp GT mismatch (SPR) (dsDNA)
DNA 1: TTTTTTTTTTTTTTTTTTTTAGTCGCCAGGGACCAGTGTCA
DNA 2: TGACACTGGTCTCTGGCGACT
**Q.** What does the source list for B1?
**A.** binding result (MutS WT): binds; Kd [1]: 16.4 ± 0.86 nM; Kd [2]: 3.28 ± 0.12 nM; Kd [3]: 1.08 ± 0.02 nM; Kd (MutS D835R): 30.85 ± 0.08 nM
